The data set can be described thus: yeast display, Sf9 membrane polyspecificity reagent, FACS + sequencing; frameworks hold sequencing errors. In a few lines:
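Galactose induction of a Saccharomyces cerevisiae BJ5465 synthetic nanobody display library ran 36–48 hours. The cells were then stained for 1 hour at 4 °C with 10% biotinylated, detergent-solubilized Sf9 membrane reagent, pulled down on streptavidin microbeads and FACS-sorted into low and high (top ~1%) gates on expression and reagent-binding fluorescence. Labels for polyreactivity follow the gate of origin.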
As to “QVQLVESGGGLVQAGGSLRLSCAASGFIFRVYAMGWYRQAPGKERELVAAISSSGSSTFYADSVKGRFTISRDNAKNTVYLQMNSLKPEDTAVYYCNAYVRRIVRSYYWGQGTQVTVSS”, the “polyreactivity (PSR sort gate)” value is recorded as “high polyreactivity”.
Take “QVQLVESGGGLVQAGGSLRLSCAASGFIFRWNTMGWYRQAPGKERELVAAISSRGGSTYYADSVKGRFKISRDNAKNTVYLQMNSLKPEDTAVYYCNAVRGDEYWGQGTQVTVSS”: the “polyreactivity (PSR sort gate)” value is given as “high polyreactivity”.
As for “QVQLVESGGGLVQAGGSLRLSCAASGFIFRWYAMGWYRQAPGKERELVAAISSGATTNYADSVKGRFTISRDNAKNTVYLQMNSLKPEDTAVYYCAAAHSYYGHYYYWGQGTQVTVSS”, the “polyreactivity (PSR sort gate)” value was “high polyreactivity”.
For the sequence “QVQLVESGGGLVQAGGSLRLSCAASGFIFRWYAMGWYRQAPGKERELVATITRGGGSTYYADSVKGRFTISRDNAKNTVYLQMNSLKPEDTAVYYCAKSVTGWRGLWYTPRNYYWGQGTQVTVSS”, the “polyreactivity (PSR sort gate)” value was “high polyreactivity”.
“QVQLVESGGGLVQAGGSLRLSCAASGFIFRYNAMGWYRQAPGKERELVARISSGGSTNYADSVKGRFTISRDNAKNTVYLQMNSLIPEDTAVYYCAVKQYWYIWSGYGYDYWGQGTQVTVSS”: the “polyreactivity (PSR sort gate)” value was “high polyreactivity”.
Consider “QVQLVESGGGLVQAGGSLRLSCAASGFIFRYYAMGWSRQAPGKERELGAAITISGGSTYYADSVKGRFTISRDNAKNTVKLQMNSLKPEDTAFYYCAADSKFWYLFHGKRYDYWGQGTQGTVSS”, for which the “polyreactivity (PSR sort gate)” value is reported as “high polyreactivity”.
As to “QVQLVESGGGLVQAGGSLRLSCAASGFIFRYYAMGWYRPAPGKERELVAAISGSGGSTYYADSVKGRFTISRDNAKNTVYLQMNSLKPEDTAVYYCNKVVLYGAHYYYWGQGTQVTVSS”, the “polyreactivity (PSR sort gate)” value was “high polyreactivity”.
Then “QVQLVESGGGLVQAGGSLRLSCAASGFIFRYYAMGWYRQAPGKEREFVASINWNGGSTSYADSVKGRFTISRDNAKNTVYLQMNSLKPEDTAVSYCAADFQYAIHTDMDYWGHGTQVTVSS”, with “high polyreactivity”.
Then “QVQLVESGGGLVQAGGSLRLSCAASGFIFRYYAMGWYRQAPGKERELVAAISKRGGGTYYADSVKGRFTISRDYAKNTVFLQMNSLKPEDTAVYYCAAGPGRGRSTLGSYYWGQGTQVTVTS”, with “high polyreactivity”.
Then “QVQLVESGGGLVQAGGSLRLSCAASGFIFRYYAMGWYRQAPGKERELVAAISWRGGSTYYADSVKGRFTISRDNAKNTVYLQMNSLKPEDTAVYYCAAERYVDYGYWGQGTQVTVSS”, with “high polyreactivity”; and “QVQLVESGGGLVQAGGSLRLSCAASGFIFRYYAMGWYRQAPGKERELVAAITRSGDNTYYADSVKGRFTISRDNAKNTVYLQMNSLKPEDTAVYYCAARDVQYQQALGGDYWGQGTQVTVSS”, with “low polyreactivity”; and “QVQLVESGGGLVQAGGSLRLSCAASGFIFRYYAMGWYRQAPGKERELVAAITSRGSSTYYADSVKGRFTISRDNAKNTVYLQMNSLKPEDTAVYYCAARLRGDYVRYYYWGQGTQVTVSS”, with “high polyreactivity”.
For “QVQLVESGGGLVQAGGSLRLSCAASGFIFRYYAMGWYRQAPGTERELVAAISQSGGSTDYADSVKGRFTISRDTAKNTVYLQMNSLKPVDTAVYYCATRTPYTKRDYWGQGTQVTVSS”, the “polyreactivity (PSR sort gate)” value is on record as “high polyreactivity”.
The value for “QVQLVESGGGLVQAGGSLRLSCAASGFIFRYYAMGWYRQATGKEREFVAVISSTTGSTYYADSVKGRFTISRDNAKNTVYLQMNSLKPEDTAVYYCAAASRRRRPLKRMDYWGQGTQVTVSS” was “low polyreactivity”; that for “QVQLVESGGGLVQAGGSLRLSCAASGFIFRYYAMGWYRQEPGKERELFAAISSTGGSTSYADSVKGRFTISRDNAKNTVYLQMNSLKPEDTAVYYCAADYWIRRRTYGQLYRPYYYWGQGTQVTVSS” was “high polyreactivity”; that for “QVQLVESGGGLVQAGGSLRLSCAASGFIFRYYAMRWYRQAPGKERELVATITYGGTSTSYADSVKGRFTISRDNAKNTVYLQMNSLKPEDSAVYYCATDRVSRVRPFWNVWRSNYWGQGTQVTVSS” was “high polyreactivity”.
